Laboratory results taken from article PMC4597100.

Experiments:
[1] = biological target: MLL1(3745–3969) SET domain construct containing the WIN motif, AviTag, biotinylated (human) (UniProt Q03164)
[2] = biological target: MLL4(5308–5537) SET domain construct containing the WIN motif, AviTag, biotinylated (human) (UniProt O14686)

Chain of UniProt Q03164 (Q03164 3745-3969): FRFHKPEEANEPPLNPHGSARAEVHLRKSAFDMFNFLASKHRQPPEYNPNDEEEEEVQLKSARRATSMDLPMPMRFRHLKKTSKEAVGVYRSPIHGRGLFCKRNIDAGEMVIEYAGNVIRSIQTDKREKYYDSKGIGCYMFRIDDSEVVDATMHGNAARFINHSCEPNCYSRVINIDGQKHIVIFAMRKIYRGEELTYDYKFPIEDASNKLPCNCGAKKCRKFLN

- KM (H3 peptide) of methyltransferase activity without WRAD, saturating SAM [1]: 430 µM
- KM (H3 peptide) of methyltransferase activity without WRAD, saturating SAM [2]: 251 µM
Binder: ARTKQTARKSTGGKAPRY [histone H3 amino terminal peptide substrate (…-Y), unmodified]
